Consider 3 molecules from patent US20110171259A1 (priority 2008, published 2011).

Entries after “also recorded” stand apart in the source; their conditions may differ. Ends that are not written are not given here.

Experiment [1] has as its target T1, Toll-Like Receptor 2 (Homo sapiens, UniProt O60603+Q15399).
T1 construct: host or cells: epithelial cells
Conditions: Fisette et al., 2003; cited from earlier work.

Experiment [2] relates to SFV (A/New Calcdonia/20/99). Nature of the experiment: Influenza-specific serum IgG ELISA after nasal instillation of SFV with Lip peptide MC58. Type of experiment: in vivo, C57BL/6 mice. Conditions: 3 μg SFV + 10 μg peptide nasally Day 0 and Day 14, sera Day 28, versus SFV alone; FIG. 6. On the procedure:
On day 28, mice were euthanized and exsanguinated by cardiac puncture. Influenza-specific IgG levels were measured in sera collected at Day 28 by ELISA using (A/New Calcdonia/20/99) SFV as solid-phase antigen.
In general terms: An ELISA detects its analyte on a solid surface through an enzyme-linked reagent.

For experiment [3], the target named is human TLR 1 and 2 (Homo sapiens, UniProt O60603+Q15399). As to the kind of experiment: NF-κB SEAP reporter assay in HEK293 cells expressing TLR 1 and 2. Conditions: TLR1/2-expressing HEK293 cells; 0, 0.01, 0.1, 1.0 μg; 5 hours exposure; FIG. 3; listed as Lip peptide lipidated MC58. A general note: In a reporter assay the amount or activity of a reporter protein is the signal.
Sequence of human TLR 1 and 2 (O60603 21-784): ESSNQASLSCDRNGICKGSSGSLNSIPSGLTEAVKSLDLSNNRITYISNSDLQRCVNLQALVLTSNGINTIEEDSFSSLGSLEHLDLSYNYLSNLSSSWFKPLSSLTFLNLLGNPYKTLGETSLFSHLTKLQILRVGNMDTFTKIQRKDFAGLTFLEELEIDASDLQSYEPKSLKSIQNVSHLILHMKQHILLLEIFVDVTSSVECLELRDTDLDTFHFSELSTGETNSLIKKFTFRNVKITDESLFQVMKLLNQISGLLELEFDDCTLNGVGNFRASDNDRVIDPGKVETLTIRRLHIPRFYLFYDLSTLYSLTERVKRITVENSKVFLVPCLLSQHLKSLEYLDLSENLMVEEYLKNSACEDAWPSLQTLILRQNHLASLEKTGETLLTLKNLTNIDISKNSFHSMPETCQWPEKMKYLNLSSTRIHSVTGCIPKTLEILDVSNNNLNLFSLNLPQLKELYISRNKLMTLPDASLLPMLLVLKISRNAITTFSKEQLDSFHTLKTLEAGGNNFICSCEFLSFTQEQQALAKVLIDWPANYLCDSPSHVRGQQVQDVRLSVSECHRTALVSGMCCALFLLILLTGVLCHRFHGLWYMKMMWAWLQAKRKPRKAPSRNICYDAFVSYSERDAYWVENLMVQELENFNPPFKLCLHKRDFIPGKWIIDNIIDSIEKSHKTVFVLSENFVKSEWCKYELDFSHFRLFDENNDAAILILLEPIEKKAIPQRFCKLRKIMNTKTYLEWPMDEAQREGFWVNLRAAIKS
Sequence of human TLR 1 and 2 (Q15399 25-786): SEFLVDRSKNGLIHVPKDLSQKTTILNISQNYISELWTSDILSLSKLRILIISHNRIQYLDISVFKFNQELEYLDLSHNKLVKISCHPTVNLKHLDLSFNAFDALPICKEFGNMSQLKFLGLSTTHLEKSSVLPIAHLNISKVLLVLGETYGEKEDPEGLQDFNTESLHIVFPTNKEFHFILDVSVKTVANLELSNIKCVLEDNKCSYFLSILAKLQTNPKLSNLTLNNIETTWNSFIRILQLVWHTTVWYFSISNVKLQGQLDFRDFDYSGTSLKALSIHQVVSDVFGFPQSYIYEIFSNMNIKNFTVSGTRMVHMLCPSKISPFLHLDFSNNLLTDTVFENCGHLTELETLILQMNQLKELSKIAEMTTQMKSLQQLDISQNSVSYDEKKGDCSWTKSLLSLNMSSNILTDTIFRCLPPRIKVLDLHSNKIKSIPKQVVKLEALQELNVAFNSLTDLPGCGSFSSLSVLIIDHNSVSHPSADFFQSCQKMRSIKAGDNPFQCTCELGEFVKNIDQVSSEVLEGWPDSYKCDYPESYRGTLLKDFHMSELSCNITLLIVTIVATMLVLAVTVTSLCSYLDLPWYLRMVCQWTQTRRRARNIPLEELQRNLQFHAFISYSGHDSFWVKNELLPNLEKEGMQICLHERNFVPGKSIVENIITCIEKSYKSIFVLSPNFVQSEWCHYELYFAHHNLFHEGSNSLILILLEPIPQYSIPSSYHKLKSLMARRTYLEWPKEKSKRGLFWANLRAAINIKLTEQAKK

Experiment [4] has as its system split-flu vaccine (SFV). Type of experiment: in vivo, C57BL/6 mice. The conditions noted are these: 3 μg SFV + 0.35 μg or 1.0 μg Lip protein nasally Day 0 and Day 14, Day 28 sera, versus SFV alone; batch 1 and batch 2; FIG. 7 and 8.
In experiment [5] the target is TLR4/MD2/CD14 (Homo sapiens, UniProt O00206). As to the kind of experiment: NF-κB SEAP reporter assay in HEK293 cells expressing TLR4/MD2/CD14. Conditions: FIG. 5.
Sequence of TLR4/MD2/CD14 (O00206 24-839): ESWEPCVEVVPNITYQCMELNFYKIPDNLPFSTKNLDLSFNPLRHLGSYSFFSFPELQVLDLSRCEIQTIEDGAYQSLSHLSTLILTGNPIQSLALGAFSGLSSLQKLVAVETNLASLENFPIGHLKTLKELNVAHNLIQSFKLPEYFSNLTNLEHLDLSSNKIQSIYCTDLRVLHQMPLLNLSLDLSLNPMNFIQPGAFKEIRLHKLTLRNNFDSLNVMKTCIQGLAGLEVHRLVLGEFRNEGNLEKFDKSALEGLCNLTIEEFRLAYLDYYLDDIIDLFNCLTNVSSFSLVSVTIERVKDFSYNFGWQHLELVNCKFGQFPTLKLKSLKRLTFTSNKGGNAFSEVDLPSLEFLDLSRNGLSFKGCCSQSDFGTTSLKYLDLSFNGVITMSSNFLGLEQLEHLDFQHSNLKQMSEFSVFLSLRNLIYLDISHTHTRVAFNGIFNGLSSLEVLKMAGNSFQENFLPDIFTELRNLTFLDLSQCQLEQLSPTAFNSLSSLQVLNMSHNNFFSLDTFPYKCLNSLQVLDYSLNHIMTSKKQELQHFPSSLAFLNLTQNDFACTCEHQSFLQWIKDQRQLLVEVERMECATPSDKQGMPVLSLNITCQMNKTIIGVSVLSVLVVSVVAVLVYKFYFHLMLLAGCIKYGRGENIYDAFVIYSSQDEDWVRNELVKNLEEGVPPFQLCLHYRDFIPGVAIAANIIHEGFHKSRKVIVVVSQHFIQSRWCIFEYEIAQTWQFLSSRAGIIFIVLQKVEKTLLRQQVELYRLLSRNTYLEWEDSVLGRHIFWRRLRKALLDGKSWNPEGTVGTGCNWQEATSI
Sequence of TLR4/MD2/CD14 (Q9Y6Y9 19-160 partner): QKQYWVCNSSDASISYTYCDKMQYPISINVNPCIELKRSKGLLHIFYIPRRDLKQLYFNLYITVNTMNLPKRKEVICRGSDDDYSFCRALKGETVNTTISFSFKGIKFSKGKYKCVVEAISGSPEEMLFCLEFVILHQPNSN

T1 sequence (O60603 21-784, species assumed): as the sequence (O60603 21-784) above
T1 sequence (Q15399 25-786, species assumed): as the sequence (Q15399 25-786) above

For “Pam3Cys-GGEKAAEAPAAEAS [Lip peptide F62, triacylated Lip peptide from N. gonorrhoeae F62]”, in experiment [1], the “production of inflammatory cytokines” value is listed as “can stimulate”.

“Pam3Cys-GGEKAAEAPAAEAP [Lip peptide MC58]”: in experiment [2], the “serum influenza-specific IgG levels” value was “statistically significant higher levels”. The “NF-κB activation (relative 650 nm optic density, SEAP)” value in experiment [3] is “mainly TLR1 and 2 agonists”.

B1: Lip protein: Lip protein purified from Neisseria meningitidis (strain 8047) Proteosome preparation (protein)
chain: MKAYLALISAAVIGLAACSQEPAAPAAEATPAAEAPASEAPAAEAAPADAAEAPAAGNCAATVESNDNMQFNTKDIQVSKACKEFTITLKHTGTQPKTSMGHNIVIGKTEDMDGIFKDGVGAADTDYVKPDDARVVAHTKLIGGGEESSLTLDPAKLADGDYKFACTFPGHGALMNGKITLVD
modifications: N.meningitidis
notes: Lip protein purified from Neisseria meningitidis (strain 8047) Proteosome preparation
For the molecule B1, in experiment [4], the “antigen-specific IgG levels in sera” value was “statistically significant (p<0.001 and p<0.01) higher levels; also recorded: significantly higher than the SFV alone”. Moreover, in experiment [5], the NF-κB activation result is reported as “no significant increase”.
